Source: US9644037B2, “Antibodies that specifically bind ataxia telangiectasia-mutated and RAD3-related kinase phosphorylated at position 1989 and their use” (THE UNITED STATES OF AMERICA, AS REPRESENTED BY THE …, priority 2013, dated 2017)

Legend:
[1] = target: T1, pT1989ATR foci in cell nuclei (Homo sapiens, UniProt Q13535); test: Immunofluorescence assay (IFA) on FFPE cells, antibody performance; format: binding
T1 construct: lysates from cells expressing ATR (HT-29, LoVo and DLD-1); endogenous in cells; host or cells: DLD-1 parental, DLD-1 Seckel (Horizon), HT-29, LoVo; with or without gemcitabine
Protocol: Subclones were screened by several assays. Screening was performed by enzyme-linked immunosorbant assay (ELISA) and Western blot for subclones of clones #7, 27 and 35 for subcloning. Subclones of clone #7 were then tested in an immunofluroescent (IFA) assay. Clone #7 was then tested in IFA assay. Formalin fixed paraffin embedded (FFPE) blocks were prepared from DLD-1 cells and DLD-1 Seckel cells treated with and without gemcitabine treatment (100 nM for 4 h). Slides were stained using neat hybridomas supernatants and imaged at 20×.
Formalin fixed paraffin embedded (FFPE) pellets were generated using cells expressing WT ATR (HT29, DLD-1 Parental) or mutated ATR (DLD-1 Seckel (Horizon)), with and without gemcitabine (SIGMA) treatment to induce ATR phosphorylation at pT1989 (Mol. Pharmacol. 2005, 68, 1636-1644). Cells were harvested by trypsinization, transferred into a sterile 50 ml conical centrifuge tubes with media containing 10% serum and pelleted at 1000×g for 5 minutes. Medium was replaced with fresh serum containing medium and centrifuged again at 1000×g, 5 minutes. All but 1 ml (approximately) of medium was removed and the pellet was re-suspended by flicking the tube. Suspended cells were transferred using a 2 ml pipette into a clean 1.5 ml conical Eppendorf tube. Cells were pelleted for 30 seconds at 8,000 rpm in an Eppendorf micro centrifuge. […]

[2] = system: non-phospho peptide-BSA conjugates; test: Direct ELISA against non-phospho peptide-BSA conjugates; format: binding, human
Protocol: (§1) The titer results from the pair of rabbits for each peptide antigen were determined in a colorimetric ELISA against BSA-conjugated peptides. Plates were coated with 50ng/well peptide-BSA conjugate in bicarbonate buffer pH 9.6 and incubated at 4° C. overnight, then and blocked with 1% BSA in TBS. Diluted (1:250-1:256,000) rabbit anti-sera (50 ul/well) were added and incubated at room temperature. Plates were washed with Tris-buffered saline with 0.05% Tween (TBST). Anti-rabbit secondary conjugated to alkaline phosphatase was used for detection with p-nitrophenyl phosphate (PNPP) substrate. Plates were read at 405 nm with a plate reader.

[3] = target: T2, pT1989 ATR (Homo sapiens, UniProt Q13535); test: Western blot of cell lysates probed with anti-ATR-pT1989 antibodies; format: binding
T2 construct: lysates from cells expressing ATR (HT-29, LoVo and DLD-1); endogenous in cells; host or cells: DLD-1 parental, DLD-1 Seckel (Horizon), HT-29, LoVo; with or without gemcitabine
Protocol: Cell growth was monitored 2-3 weeks after fusion. Hybridoma supernatants were screened by standard colorimetric ELISA against BSA-conjugated peptides as described in section C. The screening process consisted of a Primary screen on 40 plates (using bleed 2 of E5571 at 1:100 dilution as a Positive control) clones (44) with O.D. greater than 0.5 were considered putatively positive and were further expanded to 24-well plate. Confirmatory screen was performed and 6 clones were confirmed positive against phospho-specific peptides (Table 4). Additional screening was performed by ELISA using the same assay as for bleed screening (FIG. 5). Western blotting was done on selected clones #7, 27 and 35 for subcloning (FIG. 6). […]
Details for lysate preparation and Western blotting are given in Example I, section E. The antibody detected a single band at about 250 kDa consistent with the predicted molecular weight (MW) for ATR. The antibody also detected an increase in phospho-ATR (pT1989) upon gemcitabine (SIGMA) treatment which is known to increase ATR activity (Mol. Pharmacol. (2005), 68, 1636-1644). […]
Cells were treated for 4 hours with either vehicle (DMSO, 0.01%), 150 nM Gemcitabine (Sigma), 1 uM ATR inhibitor VE-821 or combination of drugs. The antibody detected a single band at about 250 kDa consistent with the predicted MW for ATR. […]

[4] = system: ATR pT1989 phospho-peptides conjugated to BSA; test: ELISA against phospho-peptide-BSA conjugates (bleed, hybridoma and clone screening); format: binding, human
Protocol: as §1
Independent screening of blood was conducted. Flat bottom, black, high binding 360 μL plates with clear bottom (VWR catalog #29444-037) were coated with 100 ng/well peptide-BSA conjugate in bicarbonate buffer pH 9.6 (Sigma, catalog # C3041-100CAP) and incubated at 4° C. overnight, then and blocked with ODYSSEY® blocking buffer (LiCor, catalog #927-40010). Diluted (1:250-1:1,000,000) rabbit anti-sera (100 ul/well) were added and incubated at 24 C. Plates were washed with phosphate-buffered saline with 0.05% tween-20 (PBS-T). […] Plates were read at 700 nm with a Licor ODYSSEY® scanner. Images were quantified using Licor ODYSSEY® application software v3.0 (FIGS. 3 and 4).
Cell growth was monitored 2-3 weeks after fusion. […]

T2 sequence (Q13535 whole entry): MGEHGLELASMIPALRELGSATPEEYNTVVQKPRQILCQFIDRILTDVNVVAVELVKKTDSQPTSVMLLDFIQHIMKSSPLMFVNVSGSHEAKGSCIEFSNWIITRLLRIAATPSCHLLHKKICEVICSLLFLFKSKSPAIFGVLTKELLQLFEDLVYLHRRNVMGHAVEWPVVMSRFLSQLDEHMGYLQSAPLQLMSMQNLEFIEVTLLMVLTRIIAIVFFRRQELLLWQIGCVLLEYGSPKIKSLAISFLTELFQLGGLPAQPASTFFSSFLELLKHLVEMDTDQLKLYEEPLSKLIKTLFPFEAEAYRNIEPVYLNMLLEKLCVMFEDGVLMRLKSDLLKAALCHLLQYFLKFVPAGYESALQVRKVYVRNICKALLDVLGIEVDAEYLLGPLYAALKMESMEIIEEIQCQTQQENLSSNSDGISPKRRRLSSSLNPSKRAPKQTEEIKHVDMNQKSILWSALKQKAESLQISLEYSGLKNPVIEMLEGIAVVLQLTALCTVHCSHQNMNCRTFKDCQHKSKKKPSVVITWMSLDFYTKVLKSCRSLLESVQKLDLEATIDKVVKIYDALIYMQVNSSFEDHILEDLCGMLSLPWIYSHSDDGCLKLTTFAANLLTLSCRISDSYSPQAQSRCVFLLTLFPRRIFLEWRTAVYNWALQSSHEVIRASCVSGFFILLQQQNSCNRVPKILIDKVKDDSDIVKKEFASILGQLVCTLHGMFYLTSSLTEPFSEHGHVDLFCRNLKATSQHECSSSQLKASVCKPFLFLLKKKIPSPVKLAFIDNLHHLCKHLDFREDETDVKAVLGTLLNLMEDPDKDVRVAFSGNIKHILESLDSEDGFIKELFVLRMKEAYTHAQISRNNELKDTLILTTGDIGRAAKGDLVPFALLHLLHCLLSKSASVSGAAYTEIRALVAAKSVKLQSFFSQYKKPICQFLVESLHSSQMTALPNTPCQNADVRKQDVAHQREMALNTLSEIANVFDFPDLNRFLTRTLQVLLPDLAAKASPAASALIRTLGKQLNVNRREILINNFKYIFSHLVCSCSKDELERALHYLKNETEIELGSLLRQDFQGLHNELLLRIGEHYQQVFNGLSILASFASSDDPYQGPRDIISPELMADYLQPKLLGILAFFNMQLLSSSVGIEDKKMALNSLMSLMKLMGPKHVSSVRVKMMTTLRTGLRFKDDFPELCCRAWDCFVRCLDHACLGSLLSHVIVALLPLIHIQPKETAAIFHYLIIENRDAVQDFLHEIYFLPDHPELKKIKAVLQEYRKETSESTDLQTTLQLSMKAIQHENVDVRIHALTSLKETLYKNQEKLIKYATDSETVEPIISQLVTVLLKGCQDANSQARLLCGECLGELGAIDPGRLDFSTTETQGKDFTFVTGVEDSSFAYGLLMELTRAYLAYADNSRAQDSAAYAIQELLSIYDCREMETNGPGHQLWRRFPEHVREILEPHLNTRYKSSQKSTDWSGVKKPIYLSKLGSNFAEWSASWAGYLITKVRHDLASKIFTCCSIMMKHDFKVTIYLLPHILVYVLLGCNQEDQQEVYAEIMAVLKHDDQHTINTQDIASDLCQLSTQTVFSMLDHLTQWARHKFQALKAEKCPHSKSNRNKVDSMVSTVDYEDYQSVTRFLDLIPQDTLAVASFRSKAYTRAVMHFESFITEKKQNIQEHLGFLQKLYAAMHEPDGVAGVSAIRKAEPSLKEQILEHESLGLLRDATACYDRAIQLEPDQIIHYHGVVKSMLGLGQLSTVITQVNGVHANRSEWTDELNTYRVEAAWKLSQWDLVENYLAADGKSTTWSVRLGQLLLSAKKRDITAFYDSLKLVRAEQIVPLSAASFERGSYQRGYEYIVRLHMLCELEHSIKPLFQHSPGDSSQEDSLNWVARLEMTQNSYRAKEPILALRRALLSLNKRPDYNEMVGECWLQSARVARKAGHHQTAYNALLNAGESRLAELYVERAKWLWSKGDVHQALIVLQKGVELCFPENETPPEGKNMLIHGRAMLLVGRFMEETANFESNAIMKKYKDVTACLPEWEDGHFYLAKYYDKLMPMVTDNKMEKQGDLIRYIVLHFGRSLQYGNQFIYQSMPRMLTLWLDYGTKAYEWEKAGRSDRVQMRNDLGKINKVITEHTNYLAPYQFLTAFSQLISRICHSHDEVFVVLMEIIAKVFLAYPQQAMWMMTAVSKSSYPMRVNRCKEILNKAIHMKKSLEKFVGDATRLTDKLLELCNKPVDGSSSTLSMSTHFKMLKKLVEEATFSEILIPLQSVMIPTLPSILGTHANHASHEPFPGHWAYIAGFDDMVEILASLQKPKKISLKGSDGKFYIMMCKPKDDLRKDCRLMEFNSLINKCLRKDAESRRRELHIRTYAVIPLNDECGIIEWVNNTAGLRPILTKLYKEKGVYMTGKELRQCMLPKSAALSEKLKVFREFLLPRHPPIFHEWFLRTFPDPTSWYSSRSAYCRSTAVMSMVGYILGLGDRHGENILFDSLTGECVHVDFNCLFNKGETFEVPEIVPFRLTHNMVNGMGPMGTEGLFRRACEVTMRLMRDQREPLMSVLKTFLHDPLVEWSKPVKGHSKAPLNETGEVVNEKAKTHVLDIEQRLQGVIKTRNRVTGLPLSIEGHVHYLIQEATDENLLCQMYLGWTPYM
T1 sequence (Q13535 whole entry): as above

suitability for pharmacodynamic IFA assay applications [1]: successfully used
specificity and sensitivity in Western blot [3]: specific for pT1989 ATR
detection of pATR in Western blot ([3]; antibody dilution 1:50, DLD1 lysates): detected pATR specifically
binding to phosphopeptide-BSA conjugates ([4]; peptide conjugated at C term or N-term to BSA): bound the phosphopeptide
B1: Clone 7A7: subclone of hybridoma 7; rabbit monoclonal antibody that specifically binds pT1989 ATR (antibody)
heavy: QSVEESGGRLVAPGTPLTLTCTVSGIDLMYNAMNWVRQAPGKGLEFIGMIGSGGNTVYASWAKGRFTISKTSTTVGLKMTSLTQEDTATYFCAREGSGGSMDFWGPGTLVTVSSGQPKAPSVFPLAPCCGDTPSSTVTLGCLVKGYLPEPVTVTWNSGTLTNGVRTFPSVRQSSGLYSLSSVVSVTSSSQPVTCNVAHPATNTKVDKTVAPSTCSKPTCPPPELLGGPSVFIFPPKPKDTLMISRTPEVTCVVVDVSQDDPEVQFTWYINNEQVRTARPPLREQQFNSTIRVVSTLPIAHQDWLRGKEFKCKVHNKALPAPIEKTISKARGQPLEPKVYTMGPPREELSSRSVSLTCMINGFYPSDISVEWEKNGKAEDNYKTTPAVLDSDGSYFLYSKLSVPTSEWQRGDVFTCSVMHEALHNHYTQKSISRSPGK
light: ALVMTQSPSSVSAAVGGTVTITCQASQSLYNNNYLAWFQQKPGQRPKLLIYKASTLASGVPSRFKGSGSGTQFTLTISDLECEDAATYYCLGEYKDNVDDGNAFGGGTEVVVEGDPVAPTVLIFPPAADQVATGTVTIVCVANKYFPDVTVTWEVDGTTQTTGIENSKTPQNSADCTYNLSSTLTLTSTQYNSHKEYTCKVTQGTTSVVQSFNRGDC
cross-reactivity with non-phospho peptide-BSA conjugates [2]: did not cross-react
specificity, titers for BSA conjugated phosphorylated and non-phosphorylated peptides ([4]; FIG. 5C): specific for the phosphorylated polypeptides
